Patent US20230201308A1, “TREATMENT OF CORONAVIRUS INFECTION WITH […]” (Eiger Biopharmaceuticals, Inc., priority 2020, published 2023)

Experiments:
[1] = Third trial (TOGETHER): treatment emergent adverse events and drug adherence; assay type: in vivo, human
Excerpt: An adverse event (AE) is any adverse change from the participant's baseline (pre-treatment) condition, including intercurrent illness which occurs during the course of the trial, after the consent form has been signed, whether the event is considered related to treatment or not.
A serious adverse event (SAE) is any adverse event that at any dose: • results in death (grade 5 event) • is life-threatening (grade 4 event) • requires inpatient hospitalization or prolongation of existing hospitalization • results in persistent or significant disability or incapacity • is a congenital anomaly/birth defect
Study personnel collected outcome data via in-person, and via telephone or WhatsApp using video-teleconferencing on Days 1, 2, 3, 4, 5, 7, 10, 14, and 28. Adverse events were recorded at the time they occurred. All serious and non-serious adverse events were reported to study personnel as per local regulatory requirements. Reportable adverse events included serious adverse events, adverse events resulting in study medication discontinuation, and adverse events assessed as possibly related to study medication.

SARS-CoV-2 = assay: Third trial (TOGETHER): virological assessment, quantitative real-time PCR of mid-turbinate swabs; assay type: in vivo, human; conditions: for proportion of participants with a negative swab for SARS-CoV-2 RNA: Canadian cohort
SARS-CoV-2 MA = tested on: SARS-CoV-2 MA; set-up: species or system BALB/c mice; conditions: mouse, in vivo, sc
[2] = ITT preliminary, n=916 vs placebo 1020
[3] = Treated within 3 days of symptom onset, n=539 vs placebo 586
[4] = Treated within 5 days of symptom onset, n=800 vs placebo 879
[5] = Unvaccinated population, n=143 vs placebo 176
[6] = Day 7, high baseline viral load

B1: pegylated interferon lambda-1a (protein)
chain: MKPTTTGKGCHIGRFKSLSPQELASFKKARDALEESLKLKNWSCSSPVFPGNWDLRLLQVRERPVALEAELALTLKVLEAAAGPALEDVLDQPLHTLHHILSQLQACIQPQPTAGPRPRGRLHHWLHRLQEAPKKESAGCLEASVTFNLFRLLTRDLKYVADGNLSLRTSTHPEST
modifications: PEG
notes: 180 mcg subcutaneous injection
TEAE, Grade 1, % of patients [1, 2]: (1.7%)
TEAE, Grade 1, RR (95% CrI) vs placebo [1, 2]: 0.75 (0.40, 1.38)
TEAE, Grade 2, % of patients [1, 2]: (9%)
TEAE, Grade 2, RR (95% CrI) vs placebo [1, 2]: 1.00 (0.75, 1.33)
TEAE, Grade 3, % of patients [1, 2]: (2.2%)
TEAE, Grade 3, RR (95% CrI) vs placebo [1, 2]: 0.70 (0.40, 1.20)
TEAE, Grade 4, % of patients [1, 2]: (0.8%)
TEAE, Grade 4, RR (95% CrI) vs placebo [1, 2]: 1.11 (0.41, 3.05)
TEAE, Grade 5, % of patients [1, 2]: (0.3%)
TEAE, Grade 5, RR (95% CrI) vs placebo [1, 2]: 0.88 (0.21, 3.40)
Number experiencing TEAEs: % ([1]; N = 931): (14.7%)
Number experiencing TEAEs: n ([1]; N = 931): 137
Number experiencing possibly treatment-related TEAS: % ([1]; N = 931): (0.4%)
Number experiencing possibly treatment-related TEAS: n ([1]; N = 931): 4
Number experiencing serious TEAEs: % ([1]; N = 931): (3.4%)
Number experiencing serious TEAEs: n ([1]; N = 931): 32
TEAE, Grade 1: % ([1]; N = 931): (2.9%)
TEAE, Grade 1: n ([1]; N = 931): 27
TEAE, Grade 2: % ([1]; N = 931): (9.2%)
TEAE, Grade 2: n ([1]; N = 931): 86
TEAE, Grade 3: % ([1]; N = 931): (2.3%)
TEAE, Grade 3: n ([1]; N = 931): 21
TEAE, Grade 4: % ([1]; N = 931): (0.9%)
TEAE, Grade 4: n ([1]; N = 931): 8
TEAE, Grade 5: % ([1]; N = 931): (0.4%)
TEAE, Grade 5: n ([1]; N = 931): 4
Number experiencing TEAEs: Probability of Superiority ([1]; N = 931 vs placebo N = 1018): 88.5
Number experiencing TEAEs: RR (95% CrI), estimated treatment effect ([1]; N = 931 vs placebo N = 1018): 0.88 (0.71, 1.08)
Number experiencing possibly treatment-related TEAS: Probability of Superiority ([1]; N = 931 vs placebo N = 1018): 82.8
Number experiencing possibly treatment-related TEAS: RR (95% CrI), estimated treatment effect ([1]; N = 931 vs placebo N = 1018): 0.59 (0.18, 1.74)
Number experiencing serious TEAEs: Probability of Superiority ([1]; N = 931 vs placebo N = 1018): 93.6
Number experiencing serious TEAEs: RR (95% CrI), estimated treatment effect ([1]; N = 931 vs placebo N = 1018): 0.72 (0.46, 1.10)
TEAE, Grade 1: Probability of Superiority ([1]; N = 931 vs placebo N = 1018): 84.5
TEAE, Grade 1: RR (95% CrI), estimated treatment effect ([1]; N = 931 vs placebo N = 1018): 0.78 (0.48, 1.26)
TEAE, Grade 2: Probability of Superiority ([1]; N = 931 vs placebo N = 1018): 64.0
TEAE, Grade 2: RR (95% CrI), estimated treatment effect ([1]; N = 931 vs placebo N = 1018): 0.95 (0.72, 1.25)
TEAE, Grade 3: Probability of Superiority ([1]; N = 931 vs placebo N = 1018): 93.9
TEAE, Grade 3: RR (95% CrI), estimated treatment effect ([1]; N = 931 vs placebo N = 1018): 0.66 (0.39, 1.11)
TEAE, Grade 4: Probability of Superiority ([1]; N = 931 vs placebo N = 1018): 42.6
TEAE, Grade 4: RR (95% CrI), estimated treatment effect ([1]; N = 931 vs placebo N = 1018): 1.09 (0.42, 2.86)
TEAE, Grade 5: Probability of Superiority ([1]; N = 931 vs placebo N = 1018): 67.5
TEAE, Grade 5: RR (95% CrI), estimated treatment effect ([1]; N = 931 vs placebo N = 1018): 0.76 (0.22, 2.46)
TEAE, Grade 1, % of patients [1, 3]: (0.9%)
TEAE, Grade 1, RR (95% CrI) vs placebo [1, 3]: 0.53 (0.18, 1.38)
TEAE, Grade 2, % of patients [1, 3]: (9.8%)
TEAE, Grade 2, RR (95% CrI) vs placebo [1, 3]: 1.13 (0.78, 1.63)
TEAE, Grade 3, % of patients [1, 3]: (1.3%)
TEAE, Grade 3, RR (95% CrI) vs placebo [1, 3]: 0.47 (0.19, 1.05)
TEAE, Grade 4, % of patients [1, 3]: (0.7%)
TEAE, Grade 4, RR (95% CrI) vs placebo [1, 3]: 3.01 (0.61, 23.67)
TEAE, Grade 5, % of patients [1, 3]: (0%)
TEAE, Grade 5, RR (95% CrI) vs placebo [1, 3]: 0.21 (0.01, 1.64)
TEAE, Grade 1, % of patients [1, 4]: (1.8%)
TEAE, Grade 1, RR (95% CrI) vs placebo [1, 4]: 0.78 (0.40, 1.51)
TEAE, Grade 2, % of patients [1, 4]: (8.9%)
TEAE, Grade 2, RR (95% CrI) vs placebo [1, 4]: 0.95 (0.70, 1.29)
TEAE, Grade 3, % of patients [1, 4]: (1.9%)
TEAE, Grade 3, RR (95% CrI) vs placebo [1, 4]: 0.56 (0.30, 1.01)
TEAE, Grade 4, % of patients [1, 4]: (0.8%)
TEAE, Grade 4, RR (95% CrI) vs placebo [1, 4]: 1.99 (0.58, 7.88)
TEAE, Grade 5, % of patients [1, 4]: (0.4%)
TEAE, Grade 5, RR (95% CrI) vs placebo [1, 4]: 0.86 (0.20, 3.40)
TEAE, Grade 1, % of patients [1, 5]: 5.6%
TEAE, Grade 1, RR (95% CrI) vs placebo [1, 5]: 1.23 (0.49, 3.08)
TEAE, Grade 2, % of patients [1, 5]: 11.9%
TEAE, Grade 2, RR (95% CrI) vs placebo [1, 5]: 1.16 (0.63, 2.16)
TEAE, Grade 3, % of patients [1, 5]: 3.5%
TEAE, Grade 3, RR (95% CrI) vs placebo [1, 5]: 0.60 (0.21, 1.53)
TEAE, Grade 4, % of patients [1, 5]: 1.4%
TEAE, Grade 4, RR (95% CrI) vs placebo [1, 5]: 0.58 (0.12, 2.22)
TEAE, Grade 5, % of patients [1, 5]: 0 (0%)
TEAE, Grade 5, RR (95% CrI) vs placebo [1, 5]: 1.21 (0.03, 47.34)
treatment emergent adverse events compared to placebo ([1]; final analysis, listed as peginterferon lambda): no important differences
Premature discontinuation, Request by participant to terminate study treatment, % ([1]; n=916): (0.0%)
Premature discontinuation, reason Hospitalization, % ([1]; n=916): (0.0%)
Premature discontinuation, reason Non-compliance with Study Therapy, % ([1]; n=916): (0.0%)
Premature discontinuation, reason Other, % ([1]; n=916): (0.0%)
Prematurely discontinued study drug, % ([1]; n=916, within 28 days of randomization): (0.0%)
incidence of any adverse event compared with placebo ([1]; preliminary ITT): indistinguishable
proportion of participants with a negative swab for SARS-CoV-2 RNA (SARS-CoV-2; Day 0 post injection): 0
proportion of participants with a negative swab for SARS-CoV-2 RNA (SARS-CoV-2; Day 1 post injection): 0
proportion of participants with a negative swab for SARS-CoV-2 RNA (SARS-CoV-2; Day 2 post injection): 7
proportion of participants with a negative swab for SARS-CoV-2 RNA (SARS-CoV-2; Day 3 post injection): 27
proportion of participants with a negative swab for SARS-CoV-2 RNA (SARS-CoV-2; Day 4 post injection): 40
proportion of participants with a negative swab for SARS-CoV-2 RNA (SARS-CoV-2; Day 5 post injection): 60
proportion of participants with a negative swab for SARS-CoV-2 RNA (SARS-CoV-2; Day 6 post injection): 64
odds ratio, below the limit of quantitation vs placebo (SARS-CoV-2; [6]): 2.13
patients below the limit of quantitation (SARS-CoV-2; [6]): 50.5%
treatment effect on viral load (Beta) (SARS-CoV-2; Day 7, high baseline viral load (≥192,841,278 copies/mL)): −1.01
median viral load decline from baseline (SARS-CoV-2; Day 7, hospitalized patients): 7.19 log copies/mL
proportion of participants with a negative swab for SARS-CoV-2 RNA (SARS-CoV-2; Day 7 post injection): 86
proportion of participants with a negative swab for SARS-CoV-2 RNA (SARS-CoV-2; Day 8 post injection): 92
proportion of participants with a negative swab for SARS-CoV-2 RNA (SARS-CoV-2; Day 9 post injection): 85
proportion of participants with a negative swab for SARS-CoV-2 RNA (SARS-CoV-2; Day 10 post injection): 92
proportion of participants with a negative swab for SARS-CoV-2 RNA (SARS-CoV-2; Day 11 post injection): 100
proportion of participants with a negative swab for SARS-CoV-2 RNA (SARS-CoV-2; Day 12 post injection): 100
proportion of participants with a negative swab for SARS-CoV-2 RNA (SARS-CoV-2; Day 13 post injection): 100
proportion of participants with a negative swab for SARS-CoV-2 RNA (SARS-CoV-2; Day 14 post injection): 100
median log decline in viral load (SARS-CoV-2; by Day 7, high baseline viral load): 8.29
viral loads by Day 7 (SARS-CoV-2; final analysis): significantly lowered
treatment effect on viral load (Beta) (SARS-CoV-2; low baseline viral load group): 0.22
SARS-CoV-2 MA replication in the lung (lung viral titer) (SARS-CoV-2 MA): significantly diminished
viral titer in the nasal turbinates (SARS-CoV-2 MA): did not alter
